T1: human Rad54B protein (untagged, purified) (human, UniProt Q9Y620 1-910)
T1 sequence: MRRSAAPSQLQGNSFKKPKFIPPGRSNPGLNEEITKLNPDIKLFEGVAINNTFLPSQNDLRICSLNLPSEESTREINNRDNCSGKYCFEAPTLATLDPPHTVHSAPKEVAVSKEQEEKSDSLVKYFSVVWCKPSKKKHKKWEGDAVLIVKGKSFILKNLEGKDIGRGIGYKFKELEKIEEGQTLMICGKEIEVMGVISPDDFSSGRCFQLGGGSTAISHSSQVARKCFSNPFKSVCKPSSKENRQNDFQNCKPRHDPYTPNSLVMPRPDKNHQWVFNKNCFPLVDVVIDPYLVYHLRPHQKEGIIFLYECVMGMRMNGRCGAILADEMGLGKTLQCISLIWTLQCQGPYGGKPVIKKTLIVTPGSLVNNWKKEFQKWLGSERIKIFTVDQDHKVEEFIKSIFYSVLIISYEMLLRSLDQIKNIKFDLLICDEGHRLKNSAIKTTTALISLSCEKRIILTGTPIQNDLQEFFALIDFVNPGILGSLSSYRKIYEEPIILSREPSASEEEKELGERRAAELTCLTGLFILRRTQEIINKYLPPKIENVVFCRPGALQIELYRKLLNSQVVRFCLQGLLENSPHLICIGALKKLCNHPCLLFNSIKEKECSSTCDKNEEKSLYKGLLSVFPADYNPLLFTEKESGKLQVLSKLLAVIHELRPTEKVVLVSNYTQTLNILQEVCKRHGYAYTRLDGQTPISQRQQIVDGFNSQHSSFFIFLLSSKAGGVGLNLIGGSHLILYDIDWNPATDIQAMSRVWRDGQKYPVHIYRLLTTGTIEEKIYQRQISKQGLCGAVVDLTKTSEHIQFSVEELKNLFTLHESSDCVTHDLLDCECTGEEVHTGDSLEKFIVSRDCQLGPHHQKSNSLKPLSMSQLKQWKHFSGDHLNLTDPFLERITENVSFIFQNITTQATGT

T2: Dmc1 (human, UniProt Q14565 1-340)
T2 sequence: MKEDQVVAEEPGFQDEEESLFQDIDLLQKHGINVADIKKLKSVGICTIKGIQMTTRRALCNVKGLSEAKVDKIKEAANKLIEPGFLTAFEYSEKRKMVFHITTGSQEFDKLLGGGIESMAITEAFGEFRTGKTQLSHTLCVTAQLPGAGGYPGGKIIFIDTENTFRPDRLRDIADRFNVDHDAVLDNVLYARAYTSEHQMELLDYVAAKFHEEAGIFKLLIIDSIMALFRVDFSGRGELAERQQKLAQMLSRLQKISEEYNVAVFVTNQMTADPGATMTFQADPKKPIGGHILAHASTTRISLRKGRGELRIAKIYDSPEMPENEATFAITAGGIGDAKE

B1: human Rad51 protein (natural protein)
chain: MAMQMQLEANADTSVEEESFGPQPISRLEQCGINANDVKKLEEAGFHTVEAVAYAPKKELINIKGISEAKADKILAEAAKLVPMGFTTATEFHQRRSEIIQITTGSKELDKLLQGGIETGSITEMFGEFRTGKTQICHTLAVTCQLPIDRGGGEGKAMYIDTEGTFRPERLLAVAERYGLSGSDVLDNVAYARAFNTDHQTQLLYQASAMMVESRYALLIVDSATALYRTDYSGRGELSARQMHLARFLRMLLRLADEFGVAVVITNQVVAQVDGAAMFAADPKKPIGGNIIAHASTTRLYLRKGRGETRICKIYDSPCLPEAEAMFAINADGVGDAKD
B2: human Dmc1 protein (purified) (natural protein)
chain: MKEDQVVAEEPGFQDEEESLFQDIDLLQKHGINVADIKKLKSVGICTIKGIQMTTRRALCNVKGLSEAKVDKIKEAANKLIEPGFLTAFEYSEKRKMVFHITTGSQEFDKLLGGGIESMAITEAFGEFRTGKTQLSHTLCVTAQLPGAGGYPGGKIIFIDTENTFRPDRLRDIADRFNVDHDAVLDNVLYARAYTSEHQMELLDYVAAKFHEEAGIFKLLIIDSIMALFRVDFSGRGELAERQQKLAQMLSRLQKISEEYNVAVFVTNQMTADPGATMTFQADPKKPIGGHILAHASTTRISLRKGRGELRIAKIYDSPEMPENEATFAITAGGIGDAKE
B3: Dmc1 mutant lacking 81 amino acid residues from the N-terminus (Dmc1 82-340) (domain or fragment)
chain: EPGFLTAFEYSEKRKMVFHITTGSQEFDKLLGGGIESMAITEAFGEFRTGKTQLSHTLCVTAQLPGAGGYPGGKIIFIDTENTFRPDRLRDIADRFNVDHDAVLDNVLYARAYTSEHQMELLDYVAAKFHEEAGIFKLLIIDSIMALFRVDFSGRGELAERQQKLAQMLSRLQKISEEYNVAVFVTNQMTADPGATMTFQADPKKPIGGHILAHASTTRISLRKGRGELRIAKIYDSPEMPENEATFAITAGGIGDAKE
B4: SAT-120 (ssDNA)
DNA: ATTTCTTCATTTCATGCTAGACAGAAGAATTCTCAGTAACTTCTTTGTGCTGTGTGTATTCAACTCACAGAGTGGAACGTCCCTTTGCACAGAGCAGATTTGAAACACTCTTTTTGTAGT

Experiments:
Test in all cases: pull-down
[1] = target: T1, human Rad54B protein (untagged, …)
pull-down = target: the molecule itself
Dmc1 = target: T2, Dmc1

| Binder | binding result [1] | binding result (pull-down) | binding result (Dmc1) |
| --- | --- | --- | --- |
| B1 | binds |  |  |
| B2 | binds | binds |  |
| B3 | binds | binds |  |
| B4 |  |  | binds |

From publication PMC1636354 (Nucleic Acids Research, 2006)
